Data set [1] has as its system HeLa Kyoto. The experiment in a line: melting temperature (median over replicates), in situ; higher = more thermally stable.
Data set [2] deals with HeLa Kyoto. The experiment in a line: thermal stability score vs G1/S (z-score of summed log2 fold changes over temperatures); higher = more thermally stable than in G1/S.
In data set [3] the test system is HeLa Kyoto. The experiment in a line: solubility change mitosis vs G1/S (difference of NP-40 vs SDS log2 ratios) (log2 ratio difference); higher = more soluble in mitosis.
The test system of data set [4] is HeLa Kyoto. The experiment in a line: solubility in G1/S (NP-40 vs SDS abundance) (log2 ratio); higher = more soluble. The conditions noted are these: cell cycle stage: G1/S.
Setting [5] is: cell cycle stage: early G1 (4.5 h after nocodazole release).
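For melting temperature (median over replicates), in situ in this document: HeLa Kyoto cells synchronized by double thymidine or nocodazole block, proteins quantified by TMT10plex mass spectrometry, three independent biological replicates.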
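For solubility change mitosis vs G1/S (difference of NP-40 vs SDS log2 ratios) in this document: synchronized HeLa Kyoto cells (double thymidine block for G1/S, nocodazole release for mitosis), protein amounts in NP-40 versus SDS lysates quantified by mass spectrometry, three biological replicates.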
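For solubility in G1/S (NP-40 vs SDS abundance) in this document: HeLa Kyoto cells arrested at G1/S by double thymidine block, proteins quantified by TMT10plex mass spectrometry in mild NP-40 versus SDS extracts, three biological replicates.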
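For thermal stability score vs G1/S (z-score of summed log2 fold changes over temperatures) in this document: synchronized HeLa Kyoto cells, proteins quantified by TMT10plex mass spectrometry, three biological replicates, mitosis taken 0.5 h after nocodazole release, G1/S directly after double thymidine block.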

With “MMEGLDDGPDFLSEEDRGLKAINVDLQSDAALQVDISDALSERDKVKFTVHTKSSLPNFKQNEFSVVRQHEEFIWLHDSFVENEDYAGYIIPPAPPRPDFDASREKLQKLGEGEGSMTKEEFTKMKQELEAEYLAIFKKTVAMHEVFLCRVAAHPILRRDLNFHVFLEYNQDLSVRGKNKKEKLEDFFKNMVKSADGVIVSGVKDVDDFFEHERTFLLEYHNRVKDASAKSDRMTRSHKSAADDYNRIGSSLYALGTQDSTDICKFFLKVSELFDKTRKIEARVSADEDLKLSDLLKYYLRESQAAKDLLYRRSRSLVDYENANKALDKARAKNKDVLQAETSQQLCCQKFEKISESAKQELIDFKTRRVAAFRKNLVELAELELKHAKGNLQLLQNCLAVLNGDT [SNX6]”, the melting temperature in data set [1] (cell cycle stage: G1/S) worked out at 51.1 °C; in data set [1] (cell cycle stage: mitosis), 50.1 °C. Also, the thermal stability score turned out to be 1.82 in data set [2] (setting [5]) and 0.524 in data set [2] (cell cycle stage: mitosis). In addition, in data set [3], the “solubility change mitosis (log2)” value is -0.0637. Moreover, in data set [4], the “solubility in G1/S (log2)” value was 0.426.
Regarding “MQALRHVVCALSGGVDSAVAALLLRRRGYQVTGVFMKNWDSLDEHGVCTADKDCEDAYRVCQILDIPFHQVSYVKEYWNDVFSDFLNEYEKGRTPNPDIVCNKHIKFSCFFHYAVDNLGADAIATGHYARTSLEDEEVFEQKHVKKPEGLFRNRFEVRNAVKLLQAADSFKDQTFFLSQVSQDALRRTIFPLGGLTKEFVKKIAAENRLHHVLQKKESMGMCFIGKRNFEHFLLQYLQPRPGHFISIEDNKVLGTHKGWFLYTLGQRANIGGLREPWYVVEKDSVKGDVFVAPRTDHPALYRDLLRTSRVHWIAEEPPAALVRDKMMECHFRFRHQMALVPCVLTLNQDGTVWVTAVQAVRALATGQFAVFYKGDECLGSGKILRLGPSAYTLQKGQRRAGMATESPSDSPEDGPGLSPLL [TRMU]”, the figures for the melting temperature in data set [1] (cell cycle stage: G1/S) and in data set [1] (cell cycle stage: mitosis) were 50.7 °C and 51.1 °C, respectively. Moreover, the thermal stability score in data set [2] (setting [5]) was 0.5; in data set [2] (cell cycle stage: mitosis) it was 0.388. For the same sequence, the “solubility change mitosis (log2)” value in data set [3] is -0.134. Moreover, in data set [4], the “solubility in G1/S (log2)” value is -0.242.
Regarding “MKLYSLSVLYKGEAKVVLLKAAYDVSSFSFFQRSSVQEFMTFTSQLIVERSSKGTRASVKEQDYLCHVYVRNDSLAGVVIADNEYPSRVAFTLLEKVLDEFSKQVDRIDWPVGSPATIHYPALDGHLSRYQNPREADPMTKVQAELDETKIILHNTMESLLERGEKLDDLVSKSEVLGTQSKAFYKTARKQNSCCAIM [YKT6]”, the melting temperature in data set [1] (cell cycle stage: G1/S) amounted to 54.5 °C; in data set [1] (cell cycle stage: mitosis) it was 54.6 °C. Also, the figures for the thermal stability score in data set [2] (setting [5]) and in data set [2] (cell cycle stage: mitosis) were 0.334 and -0.9, respectively. Further, the “solubility change mitosis (log2)” value in data set [3] is -0.0935. The “solubility in G1/S (log2)” value in data set [4] is -0.0827.
As for “MIHSLFLINCSGDIFLEKHWKSVVSQSVCDYFFEAQEKAADVENVPPVISTPHHYLISIYRDKLFFVSVIQTEVPPLFVIEFLHRVADTFQDYFGECSEAAIKDNVVIVYELLEEMLDNGFPLATESNILKELIKPPTILRSVVNSITGSSNVGDTLPTGQLSNIPWRRAGVKYTNNEAYFDVVEEIDAIIDKSGSTVFAEIQGVIDACIKLSGMPDLSLSFMNPRLLDDVSFHPCIRFKRWESERVLSFIPPDGNFRLISYRVSSQNLVAIPVYVKHSISFKENSSCGRFDITIGPKQNMGKTIEGITVTVHMPKVVLNMNLTPTQGSYTFDPVTKVLTWDVGKITPQKLPSLKGLVNLQSGAPKPEENPSLNIQFKIQQLAISGLKVNRLDMYGEKYKPFKGVKYVTKAGKFQVRT [AP3M1]”, the figures for the melting temperature in data set [1] (cell cycle stage: G1/S) and in data set [1] (cell cycle stage: mitosis) were 50.8 °C and 50.1 °C, respectively. Also, the thermal stability score in data set [2] (setting [5]) worked out at 0.811; in data set [2] (cell cycle stage: mitosis), 0.722. Besides, the “solubility change mitosis (log2)” value in data set [3] is -0.0783. Also, the “solubility in G1/S (log2)” value in data set [4] is -0.0152.
Consider “MAECGRGGAAGGALPTSPGPALGAKGALKAGVGEGGGGGGRLGHGRARYDSGGVSNGDCSLGVSGDEARASPTRGPRGVALAPTPSAVVCTLPRESKPGGLPRRSSIIKDGTKQKRERKKTVSFSSMPTEKKISSASDCINSMVEGSELKKVRSNSRIYHRYFLLDADMQSLRWEPSKKDSEKAKIDIKSIKEVRTGKNTDIFRSNGISDQISEDCAFSVIYGENYESLDLVANSADVANIWVTGLRYLISYGKHTLDMLESSQDNMRTSWVSQMFSEIDVDNLGHITLCNAVQCIRNLNPGLKTSKIELKFKELHKSKDKAGTEVTKEEFIEVFHELCTRPEIYFLLVQFSSNKEFLDTKDLMMFLEAEQGVAHINEEISLEIIHKYEPSKEGQEKGWLSIDGFTNYLMSPDCYIFDPEHKKVCQDMKQPLSHYFINSSHNTYLIEDQFRGPSDITGYIRALKMGCRSVELDVWDGPDNEPVIYTGHTMTSQIVFRSVIDIINKYAFFASEYPLILCLENHCSIKQQKVMVQHMKKLLGDKLYTTSPNVEESYLPSPDVLKGKILIKAKKLSSNCSGVEGDVTDEDEGAEMSQRMGKENMEQPNNVPVKRFQLCKELSELVSICKSVQFKEFQVSFQVQKYWEVCSFNEVLASKYANENPGDFVNYNKRFLARVFPSPMRIDSSNMNPQDFWKCGCQIVAMNFQTPGLMMDLNIGWFRQNGNCGYVLRPAIMREEVSFFSANTKDSVPGVSPQLLHIKIISGQNFPKPKGSGAKGDVVDPYVYVEIHGIPADCAEQRTKTVHQNGDAPIFDESFEFQINLPELAMVRFVVLDDDYIGDEFIGQYTIPFECLQTGYRHVPLQSLTGEVLAHASLFVHVAITNRRGGGKPHKRGLSVRKGKKSREYASLRTLWIKTVDEVFKNAQPPIRDATDLRENMQNAVVSFKELCGLSSVANLMQCMLAVSPRFLGPDNTPLVVLNLSEQYPTMELQGIVPEVLKKIVTTYDMMIQSLKALIENADAVYEKIVHCQKAAMEFHEHLHSIGTKEGLKERKLQKAVESFTWNITILKGQADLLKYAKNETLENLKQIHFAAVSCGLNKPGTENADVQKPRRSLEVIPEKANDETGE [PLCL2]”, for which the melting temperature in data set [1] (cell cycle stage: G1/S) was 50.4 °C; in data set [1] (cell cycle stage: mitosis), 50.2 °C. The results for the thermal stability score in data set [2] (setting [5]) and in data set [2] (cell cycle stage: mitosis) were -0.0105 and -0.32, respectively. The “solubility change mitosis (log2)” value in data set [3] was -0.105. In data set [4], the “solubility in G1/S (log2)” value was -0.0622.
